The record followed here is the supplement of paper PMC12636428.

In this data set the test system is Saccharomyces cerevisiae. The experiment in a line: transcriptional activation domain activity (GFP:mCherry ratio, weighted mean of sorted bins, harmonized to initial dataset scale) (arbitrary fluorescence ratio units); higher = stronger transcriptional activation. As to conditions: beta-estradiol 1 µM; induction time 4 h. The essentials: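 The activation activity of each tile is the read-weighted mean of bin median fluorescence, averaged across its barcodes and mapped linearly onto the scale of the initial dataset. Tiles were fused to an estradiol-inducible synthetic transcription factor, barcoded, and integrated at URA3 in yeast diploids carrying a GFP reporter. Induction used 1 uM beta-estradiol in SC for 4 hours at 30 °C, after which cells were sorted into 8 GFP:mCherry bins, and any tile with fewer than 50 reads was dropped.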

Regarding “MLMIVVNDTIFYITVISHILLAYYGLVTIDNGLLLSNPTWYCPLNYTLIATCI”, the “transcriptional activation domain activity” value is 61700.

Turning to “MLMLLGKHVLLLIKMISLMDPFQVNILLHRNNPFPAVSFFFYYSFCLFHILHF”, the “transcriptional activation domain activity” value came to 55200.

Take “MLMTKYMCKGSRLIFIFFCVFRLSMLFTFFSIVSDSCLYWCRVISYLVLLMTL”: the “transcriptional activation domain activity” value worked out at 63700.

On to “MLMVLFSIFSTMPSPVYIIILFPSFLTFFFRYILSTVLGLWTFAFHLIPNSCW”, for which the “transcriptional activation domain activity” value turned out to be 65200.

Regarding “MLNLHQSCLLLCSLLIITGLGLASTIFIPVNPFYQLLLMENSAFPWIHFVIYC”, the “transcriptional activation domain activity” value was 38500.

For the sequence “MLNLSYPFVLFILVPLILIPTCFCPFFVGPSYMSFCLSWLLPLFSFLPLLMLM”, the “transcriptional activation domain activity” value was determined as 50300.

For “MLNLVILAFVIVFSTFLIGCVDYAAIPTHHALSEVMLPHCYARLSPSTVLFLL”, the “transcriptional activation domain activity” value amounted to 39700.

Consider “MLNNSSSFFVVVPIIYTLIHYLSMLFLFGCLIHLFPYIPTCILQLLLFLLYLY”, for which the “transcriptional activation domain activity” value amounted to 44500.

In the case of “MLPDEVSPWFQEVFIPTLLAYCGTFQHPWDLPQPFEDIIAELWPFVFPLSLPY”, the “transcriptional activation domain activity” value was 68000.

On to “MLPHCIVIIGILFSLLSDVYLYLESSLIHKVHLSSIPGTLLWHPAFFLCILCK”, for which the “transcriptional activation domain activity” value amounted to 55800.

Take “MLPLVLLLLLLLLLLLLLLLLLLLLLLLLLIMMMIMMMMFLLFLLLLRARVRQ”: the “transcriptional activation domain activity” value came out at 13600.

“MLPQFQEGNCEDLWNVLVWCTIPIPFDDCEAYPCDYQQNPYPNHINFWFYLFW”: the “transcriptional activation domain activity” value came out at 55600.

With “MLPQLIWGCFIFGLASILLCVTFIPNPSHGYIRMRQSYNSFKLYIFGPSFTYL”, the “transcriptional activation domain activity” value stood at 74800.

For “MLPRLFFVAFATIPSPSSPLPPLPFLSSLAFFFSFFPHLISFLFVFFSFHTFF”, the “transcriptional activation domain activity” value was 51400.

On to “MLPRQRHSFWSVVTYLIMYYIIMYAFLYGIKYTHWIYFLSNHLVMWLLLLHFL”, for which the “transcriptional activation domain activity” value was determined as 41100.

In the case of “MLPSPGETKNHAKSQSEIIQMLTDEFWANYNSGWEELINQSEFSTLFDDYKDN”, the “transcriptional activation domain activity” value came out at 116000.

For “MLPTLRMLLGLICIAFLNRHCYGYSSRQMPMFAEAACFRIAHVLSPASAVYYP”, the “transcriptional activation domain activity” value worked out at 59700.

As to “MLQHSWCFIFRLFDPLFFFFFFFFSTWNAIVGRWVFSLSFEPFFVRLLHLILY”, the “transcriptional activation domain activity” value was 37700.

Turning to “MLQIRSFVIAAFALPLCLLFCFFTLPFFALCPFLLYFPSFSILLLRLMLHLLV”, the “transcriptional activation domain activity” value came to 49200.

For “MLQLWRLCVDNLLMAFSNYFPLVLPHATRFYLFYFWLILRGLQLTRLFCVCFM”, the “transcriptional activation domain activity” value worked out at 85300.

As for “MLQLWWLCVVFCVICFLCEWFRLGVVPPFLAATTLLQLFYFFYLLTFFCRVCA”, the “transcriptional activation domain activity” value came out at 50700.

For “MLQQRGILRVFRIGLFILFVILLFSFLVFVTFFISLAFPHLLLVLCIFFHFFN”, the “transcriptional activation domain activity” value is 44200.

As to “MLQQVPRVCIISIFWNISALWAAKRFEPMVSAYSLLSNVPYVLRLVCSWQPTE”, the “transcriptional activation domain activity” value worked out at 32200.

As for “MLQRFWYLALLAKRRTDLFSFKLSCLELLCFLPISMVVCHIWVIMGPLFFILF”, the “transcriptional activation domain activity” value worked out at 50800.

Regarding “MLQVALYMRSSSLIISIWPRLSCSRFLLVLQLIVFSFHCQLVYSIYLMLLAFS”, the “transcriptional activation domain activity” value came to 58300.

As for “MLQVVVQCFGISLLYFRSGVYLCIFTVHGLGYLFCVFCVFGFHSVWVGLCFFV”, the “transcriptional activation domain activity” value stood at 56600.

For “MLRCLLSFLLYIYQFKYCNAQVSINVPIDGRQFKFIESFQFLNLPFNVITSTV”, the “transcriptional activation domain activity” value was 67900.

As to “MLRCVFFLYCFLLVTFFSSRRVLVCAGAYLSSSYPLMPDCQYWVYFAFLRCFS”, the “transcriptional activation domain activity” value is 52400.

Consider “MLRDYWLILIVNCQTIGCKLPIVMWSPLCLFLTLNHGLLWLWMCLALRFFSLF”, for which the “transcriptional activation domain activity” value turned out to be 35000.

As to “MLRFYVLISFFFFLCNHLLFLICFIYIREFLSHLSGALVLCFGCMVWFLNFPS”, the “transcriptional activation domain activity” value turned out to be 62000.

Regarding “MLRITLRVSIFLGYFPLFGWCAGFCFFRPFFFFFFACFRARWAFFFPSIRFFY”, the “transcriptional activation domain activity” value was found to be 37300.

For the sequence “MLRLLAMLAKYVAFLLVLLNIRSFPLVWHFRLFRAFIQLGLSLQWHKLTHFYL”, the “transcriptional activation domain activity” value was found to be 60600.

With “MLRLLFWYLLIFVCLFCSSSPSYLSIFCLFFLCLIFIPSSSYILLPFLFLTLY”, the “transcriptional activation domain activity” value amounted to 37500.

Consider “MLRLYHLMWDSGDYIYTIIGGWLPLPRDLMYVPFPGFYLKYMIFPTPLTLSVL”, for which the “transcriptional activation domain activity” value is 43600.

On to “MLRPYFFSPHFLLFVLVSAFNPGYYPPSLQFLSIICLYIFICPPPFFFISFPP”, for which the “transcriptional activation domain activity” value stood at 50800.

For the sequence “MLRTWVLLLLVGLLGVFVRADDEPASEEPKSGGLSLSRLSQLVTSGVTGARPP”, the “transcriptional activation domain activity” value worked out at 39300.

For the sequence “MLRVIVLLIVIDHLLYLPWLYFATYNARLLSCQSSTGRIYIERNCHSHSYGDK”, the “transcriptional activation domain activity” value worked out at 50700.

With “MLRVPGSWFGMLFMGLLVSRERLSLLASLLFFVQVIFIRLLVVFWMICGGQIP”, the “transcriptional activation domain activity” value is 31400.

In the case of “MLRYFPTYRDEVVNAANYLNVVLSMDAFYYYQFCLNWTSTQLYDTWFNACFRI”, the “transcriptional activation domain activity” value was 59100.

“MLSFVIVRLLTSHLQLVWRAALLLCKPLCICPLQFLYDRESHYNLLCNEAVVF”: the “transcriptional activation domain activity” value was 68500.

Take “MLSGLRHLRDEHIFAAAVGFFSHIYYYRYGEHHMQAPLLFWMHISVFLMLFYW”: the “transcriptional activation domain activity” value was found to be 40100.

Take “MLSHLVVSTPHCSIMFGPSMDWTRVFAFFLLLRFSLHWISNNCFVSPLLLLCY”: the “transcriptional activation domain activity” value amounted to 69800.

Regarding “MLSIYNLQTRGIHPPNVVVGMAIFCGGLAHIFLLLFRSWNVGIICSMSCHILL”, the “transcriptional activation domain activity” value is 66200.

Consider “MLSLFSETGCTFLLVGLSIVVGVEKGSFLFYFVYLFTLYLYCGPILLGKLIFM”, for which the “transcriptional activation domain activity” value was 49800.

Consider “MLSLIFLFMIPYIHDNIFISYSPITKFMHLFIPFIIITNIFLFYTYFSILLSL”, for which the “transcriptional activation domain activity” value is 37600.

Turning to “MLSLIWCFKAWLLTIISLPSYIILRTPLPFLFSSSPLFRSSPFHFFFTSLSTH”, the “transcriptional activation domain activity” value was 48100.

With “MLSLKSFLPLQASLLFAAVGPISLFSLSDDVVRHIFCLKLQIFYLRFLLKWEH”, the “transcriptional activation domain activity” value amounted to 43700.

Take “MLSLRQCYLVLCTLLIITGVGLASTIFIPVNPFYQLLLMENVAFPWIHFILFC”: the “transcriptional activation domain activity” value was 49900.

In the case of “MLSQSGLPKVLGLASAFVYSWTPMILLACYTVGSLCFYLIIPSLLGEILWYIY”, the “transcriptional activation domain activity” value stood at 60100.

Take “MLSRCFKCPYGAWGVIIFFIFFFYFFLNIPFFFVYYYLLFFVCSFFSFFFHFI”: the “transcriptional activation domain activity” value came to 38600.

In the case of “MLSSKLNGRSQFICHLCHTGSLLTSVTLIFPFHHTYLHFLGWNLTLLTTVWFF”, the “transcriptional activation domain activity” value came to 60600.

For “MLSSWSTSLNLVFFSLTWTTIAMTYSPLQLEFFAPLLLRTFLYLLPSALFLLF”, the “transcriptional activation domain activity” value turned out to be 67600.

Take “MLSVRVVVLFAGHLCFLSSSYVLIRCFGDGFNSFVSFRFSSVWWWYLHTLCTH”: the “transcriptional activation domain activity” value was 87900.

As for “MLSVSLSFPFLLFFFSVSIFLLLLLLFSVSFILLLSLFFCSSFSFFNSFMVFF”, the “transcriptional activation domain activity” value was 43100.

“MLSYGSFFFLIFFVFFVISLGFLLSCSWMLYSHIWCCDGPRIFFLFVNLLFVS”: the “transcriptional activation domain activity” value is 38300.

Take “MLTEFCFNMLGRHDGKGLISNAVLNAWLKQLSDYFRARFTIWCRINILMDLYR”: the “transcriptional activation domain activity” value came to 42100.

Regarding “MLTEVLEYCYVHGKKAYVLFNILQHVLDCHDYISFTHQLVLVMKYAKYQYVIA”, the “transcriptional activation domain activity” value was 55100.

Regarding “MLTHLHFVEQPLTPPFFSVSITSFLLRSFAFPPCVLPSVAFFLCLFCFLPLLV”, the “transcriptional activation domain activity” value is 56500.

Consider “MLTILAQNQWFYIIVYIILSYLVIFIIGLFPSVLFFRLRHLHYSFSFYLEYLA”, for which the “transcriptional activation domain activity” value was found to be 32700.

Regarding “MLTIYFPLLLFLCFHFFNRVKVWWVWVWGRVKLGWVYWFLYLCIWKGGWIRNR”, the “transcriptional activation domain activity” value was 48300.

Turning to “MLTLLLLTLIIFLSSTLVLLFFFLIPLFLICLLTFLLIFFSSPRAFFSFPHPT”, the “transcriptional activation domain activity” value came to 47800.

For “MLTLLSVTHGLLHKSLVHLGSIFDLCLLWAQGKYTNPILSCLLSLYLLSWLLY”, the “transcriptional activation domain activity” value worked out at 62700.

As to “MLTWFFSYRLELLPFFYIIFSPIVFLLFSIFLLVLLRSFVCRLICFCLFLQSV”, the “transcriptional activation domain activity” value stood at 56500.

Turning to “MLVALCTYMIFNYYFFNFLLLFIFLYFTSYIVLSSSYSLVFISLIINSDFLFL”, the “transcriptional activation domain activity” value was 57500.

Take “MLVICLLDLLLSIMRCKRNLIQFILVCTKDGFCVGLMTKSYKRSLLVKRLFCT”: the “transcriptional activation domain activity” value is 39300.

“MLVLILTLYYFSNYLKSTHQLLSMNLLSSDDLCGILVRDNIIFSILFTFPKIL”: the “transcriptional activation domain activity” value turned out to be 63200.

Consider “MLVLLLLLLLLLLLLFLLLPLLLLLPLLLCLYMPCIVRCSNHEVHILLISGTG”, for which the “transcriptional activation domain activity” value turned out to be 72900.

For the sequence “MLVRCPHLILNHKMPVLYLLFYLHIFHSLLLPFCIYASFFSFILFYQIGIFLL”, the “transcriptional activation domain activity” value was determined as 48400.

For “MLVRISLFLTLPFTLNLLPTMDLCCIGNVKILNYLSKCIHGSLCNHSIILIRL”, the “transcriptional activation domain activity” value was determined as 56300.

Take “MLVRLFFCCYCCCLPVCLSVCLLHVVRCVMLLLTLMLFALLLRTCATLFFLFF”: the “transcriptional activation domain activity” value is 61400.

As to “MLVRLQNRLLLLGIFSHCVYGWHLEVDYVSLSDAIQTVVVQCRNLTFHITGLG”, the “transcriptional activation domain activity” value was determined as 53100.

Regarding “MLVSVANLHYFFFPLSFGVCVLRYSSLAMCFFCIYCCLVTMLCILLLLLWSTI”, the “transcriptional activation domain activity” value came out at 39800.

Regarding “MLVVELLPAIESFFGHIFCTDFMFCFLFFYIIYIFFFSRFSVIANYTVMSLYF”, the “transcriptional activation domain activity” value amounted to 85300.

For the sequence “MLWGDTQILVVLLHYILPTYQFPRFYFYYMYLPLRSWLLVDNPFLFSYSALIQ”, the “transcriptional activation domain activity” value is 63200.
